According to the supplement of paper PMC5998384:

What was measured:
[1] = system: HeLa Kyoto; experiment: solubility in G1/S (NP-40 vs SDS abundance) (log2 ratio); higher = more soluble; settings: cell cycle stage: G1/S
[2] = system: HeLa Kyoto; experiment: thermal stability score vs G1/S (z-score of summed log2 fold changes over temperatures); higher = more thermally stable than in G1/S
[3] = system: HeLa Kyoto; experiment: melting temperature (median over replicates), in situ; higher = more thermally stable
[4] = system: HeLa Kyoto; experiment: solubility change mitosis vs G1/S (difference of NP-40 vs SDS log2 ratios) (log2 ratio difference); higher = more soluble in mitosis
[5] = cell cycle stage: early G1 (4.5 h after nocodazole release)
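Wherever melting temperature (median over replicates), in situ is given: HeLa Kyoto cells synchronized by double thymidine or nocodazole block, proteins quantified by TMT10plex mass spectrometry, three independent biological replicates.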
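Wherever solubility change mitosis vs G1/S (difference of NP-40 vs SDS log2 ratios) is given: synchronized HeLa Kyoto cells (double thymidine block for G1/S, nocodazole release for mitosis), protein amounts in NP-40 versus SDS lysates quantified by mass spectrometry, three biological replicates.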
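Wherever solubility in G1/S (NP-40 vs SDS abundance) is given: HeLa Kyoto cells arrested at G1/S by double thymidine block, proteins quantified by TMT10plex mass spectrometry in mild NP-40 versus SDS extracts, three biological replicates.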
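Wherever thermal stability score vs G1/S (z-score of summed log2 fold changes over temperatures) is given: synchronized HeLa Kyoto cells, proteins quantified by TMT10plex mass spectrometry, three biological replicates, mitosis taken 0.5 h after nocodazole release, G1/S directly after double thymidine block.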

MVPRLLLRAWPRGPAVGPGAPSRPLSAGSGPGQYLQRSIVPTMHYQDSLPRLPIPKLEDTIRRYLSAQKPLLNDGQFRKTEQFCKSFENGIGKELHEQLVALDKQNKHTSYISGPWFDMYLSARDSVVLNFNPFMAFNPDPKSEYNDQLTRATNMTVSAIRFLKTLRAGLLEPEVFHLNPAKSDTITFKRLIRFVPSSLSWYGAYLVNAYPLDMSQYFRLFNSTRLPKPSRDELFTDDKARHLLVLRKGNFYIFDVLDQDGNIVSPSEIQAHLKYILSDSSPAPEFPLAYLTSENRDIWAELRQKLMSSGNEESLRKVDSAVFCLCLDDFPIKDLVHLSHNMLHGDGTNRWFDKSFNLIIAKDGSTAVHFEHSWGDGVAVLRFFNEVFKDSTQTPAVTPQSQPATTDSTVTVQKLNFELTDALKTGITAAKEKFDATMKTLTIDCVQFQRGGKEFLKKQKLSPDAVAQLAFQMAFLRQYGQTVATYESCSTAAFKHGRTETIRPASVYTKRCSEAFVREPSRHSAGELQQMMVECSKYHGQLTKEAAMGQGFDRHLFALRHLAAAKGIILPELYLDPAYGQINHNVLSTSTLSSPAVNLGGFAPVVSDGFGVGYAVHDNWIGCNVSSYPGRNAREFLQCVEKALEDMFDALEGKSIKS [CPT2]
solubility in G1/S (log2) [1]: 0.115
thermal stability score [2, 5]: -0.368
thermal stability score ([2]; cell cycle stage: mitosis): 0.841
melting temperature ([3]; cell cycle stage: G1/S): 50 °C
melting temperature ([3]; cell cycle stage: mitosis): 50 °C
solubility change mitosis (log2) [4]: -0.135

MVPSRRTWNLGATPSLRGLWRVGRAPEPEPGMARPAPAPASPAARPFPHTGPGRLRTGRGKDTPVCGDEDSSARSAARPALAQCRALSVDWAGPGSPHGLYLTLQVEHLKEKLISQAQEVSRLRSELGGTDLEKHRDLLMVENERLRQEMRRCEAELQELRTKPAGPCPGCEHSQESAQLRDKLSQLQLEMAESKGMLSELNLEVQQKTDRLAEVELRLKDCLAEKAQEEERLSRRLRDSHETIASLRAQSPPVKYVIKTVEVESSKTKQALSESQARNQHLQEQVAMQRQVLKEMEQQLQSSHQLTARLRAQIAMYESELERAHGQMLEEMQSLEEDKNRAIEEAFARAQVEMKAVHENLAGVRTNLLTLQPALRTLTNDYNGLKRQVRGFPLLLQEALRSVKAEIGQAIEEVNSNNQELLRKYRRELQLRKKCHNELVRLKGNIRVIARVRPVTKEDGEGPEATNAVTFDADDDSIIHLLHKGKPVSFELDKVFSPQASQQDVFQEVQALVTSCIDGFNVCIFAYGQTGAGKTYTMEGTAENPGINQRALQLLFSEVQEKASDWEYTITVSAAEIYNEVLRDLLGKEPQEKLEIRLCPDGSGQLYVPGLTEFQVQSVDDINKVFEFGHTNRTTEFTNLNEHSSRSHALLIVTVRGVDCSTGLRTTGKLNLVDLAGSERVGKSGAEGSRLREAQHINKSLSALGDVIAALRSRQGHVPFRNSKLTYLLQDSLSGDSKTLMVVQVSPVEKNTSETLYSLKFAERVRSVELGPGLRRAELGSWSSQEHLEWEPACQTPQPSARAHSAPSSGTSSRPGSIRRKLQPSGKSRPLPV [KIFC3]
solubility in G1/S (log2) [1]: -0.0691
thermal stability score [2, 5]: 0.116
thermal stability score ([2]; cell cycle stage: mitosis): 0.946
melting temperature ([3]; cell cycle stage: G1/S): 49.1 °C
melting temperature ([3]; cell cycle stage: mitosis): 47.3 °C
solubility change mitosis (log2) [4]: 0.169

MVRKKNPPLRNVASEGEGQILEPIGTESKVSGKNKEFSADQMSENTDQSDAAELNHKEEHSLHVQDPSSSSKKDLKSAVLSEKAGFNYESPSKGGNFPSFPHDEVTDRNMLAFSSPAAGGVCEPLKSPQRAEADDPQDMACTPSGDSLETKEDQKMSPKATEETGQAQSGQANCQGLSPVSVASKNPQVPSDGGVRLNKSKTDLLVNDNPDPAPLSPELQDFKCNICGYGYYGNDPTDLIKHFRKYHLGLHNRTRQDAELDSKILALHNMVQFSHSKDFQKVNRSVFSGVLQDINSSRPVLLNGTYDVQVTSGGTFIGIGRKTPDCQGNTKYFRCKFCNFTYMGNSSTELEQHFLQTHPNKIKASLPSSEVAKPSEKNSNKSIPALQSSDSGDLGKWQDKITVKAGDDTPVGYSVPIKPLDSSRQNGTEATSYYWCKFCSFSCESSSSLKLLEHYGKQHGAVQSGGLNPELNDKLSRGSVINQNDLAKSSEGETMTKTDKSSSGAKKKDFSSKGAEDNMVTSYNCQFCDFRYSKSHGPDVIVVGPLLRHYQQLHNIHKCTIKHCPFCPRGLCSPEKHLGEITYPFACRKSNCSHCALLLLHLSPGAAGSSRVKHQCHQCSFTTPDVDVLLFHYESVHESQASDVKQEANHLQGSDGQQSVKESKEHSCTKCDFITQVEEEISRHYRRAHSCYKCRQCSFTAADTQSLLEHFNTVHCQEQDITTANGEEDGHAISTIKEEPKIDFRVYNLLTPDSKMGEPVSESVVKREKLEEKDGLKEKVWTESSSDDLRNVTWRGADILRGSPSYTQASLGLLTPVSGTQEQTKTLRDSPNVEAAHLARPIYGLAVETKGFLQGAPAGGEKSGALPQQYPASGENKSKDESQSLLRRRRGSGVFCANCLTTKTSLWRKNANGGYVCNACGLYQKLHSTPRPLNIIKQNNGEQIIRRRTRKRLNPEALQAEQLNKQQRGSNEEQVNGSPLERRSEDHLTESHQREIPLPSLSKYEAQGSLTKSHSAQQPVLVSQTLDIHKRMQPLHIQIKSPQESTGDPGNSSSVSEGKGSSERGSPIEKYMRPAKHPNYSPPGSPIEKYQYPLFGLPFVHNDFQSEADWLRFWSKYKLSVPGNPHYLSHVPGLPNPCQNYVPYPTFNLPPHFSAVGSDNDIPLDLAIKHSRPGPTANGASKEKTKAPPNVKNEGPLNVVKTEKVDRSTQDELSTKCVHCGIVFLDEVMYALHMSCHGDSGPFQCSICQHLCTDKYDFTTHIQRGLHRNNAQVEKNGKPKE [TRPS1]
solubility in G1/S (log2) [1]: 0.00718
thermal stability score [2, 5]: 0.487
thermal stability score ([2]; cell cycle stage: mitosis): 0.962
melting temperature ([3]; cell cycle stage: G1/S): 51.1 °C
melting temperature ([3]; cell cycle stage: mitosis): 51.9 °C
solubility change mitosis (log2) [4]: -0.0534

MVRTKTWTLKKHFVGYPTNSDFELKTAELPPLKNGEVLLEALFLTVDPYMRVAAKRLKEGDTMMGQQVAKVVESKNVALPKGTIVLASPGWTTHSISDGKDLEKLLTEWPDTIPLSLALGTVGMPGLTAYFGLLEICGVKGGETVMVNAAAGAVGSVVGQIAKLKGCKVVGAVGSDEKVAYLQKLGFDVVFNYKTVESLEETLKKASPDGYDCYFDNVGGEFSNTVIGQMKKFGRIAICGAISTYNRTGPLPPGPPPEIVIYQELRMEAFVVYRWQGDARQKALKDLLKWVLEGKIQYKEYIIEGFENMPAAFMGMLKGDNLGKTIVKA [PTGR1]
solubility in G1/S (log2) [1]: 0.248
thermal stability score [2, 5]: 0.13
thermal stability score ([2]; cell cycle stage: mitosis): -1.48
melting temperature ([3]; cell cycle stage: G1/S): 53.2 °C
melting temperature ([3]; cell cycle stage: mitosis): 53.5 °C
solubility change mitosis (log2) [4]: -0.225
